According to patent US20190177376A1:
pKd: −log10 of the molar value.

Molecular target: human IgG (human)
Assay: ELISA, IgG coated on plate, detection with Strep-Tactin-HRP

domain B (from UniProt P38507 212-269)
pKd: 8.51
